Test results from paper PMC9482650, “Quantitative fragmentomics allow affinity mapping of interactomes” (Nature Communications, 2022).

Legend:
Experiment in all cases: holdup assay
Set-up in all cases: key: below the threshold = too weak to quantify, mostly under pKd 3.1 to 4
Conditions in all cases: plain residues with an end cap or a label only (N-terminal biotin on a linker: (peg)3)
PARD6G, Q9BYG4 = biological target: T1, PARD6G, Q9BYG4
T1 sequence (Q9BYG4 153-261, limits assumed, looked up): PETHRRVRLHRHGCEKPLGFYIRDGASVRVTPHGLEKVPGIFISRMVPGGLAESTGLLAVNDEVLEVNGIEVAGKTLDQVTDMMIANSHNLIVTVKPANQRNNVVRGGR

DLG5_2, Q8TDM6 = biological target: DLG5_2, Q8TDM6
NHERF1_1, O14745 = biological target: T2, NHERF1_1, O14745
T2 sequence (O14745 9-104, limits assumed, looked up): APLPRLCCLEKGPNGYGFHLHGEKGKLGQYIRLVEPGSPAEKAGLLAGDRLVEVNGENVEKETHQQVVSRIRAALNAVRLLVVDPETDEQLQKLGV

Inadl_7, Q8NI35 = biological target: Inadl_7, Q8NI35
MPDZ_2, O75970 = biological target: T3, MPDZ_2, O75970
T3 sequence (O75970 252-347, limits assumed, looked up): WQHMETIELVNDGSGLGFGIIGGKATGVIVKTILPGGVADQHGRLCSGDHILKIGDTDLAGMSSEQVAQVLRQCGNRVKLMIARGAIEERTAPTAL

PTPN13_1, Q12923 = biological target: T4, PTPN13_1, Q12923
T4 sequence (Q12923 1088-1188, limits assumed, looked up): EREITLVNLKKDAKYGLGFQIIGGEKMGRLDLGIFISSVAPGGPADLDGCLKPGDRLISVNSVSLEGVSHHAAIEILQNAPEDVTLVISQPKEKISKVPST

PTPN13_2, Q12923 = biological target: PTPN13_2, Q12923
INTU, Q9ULD6 = biological target: T5, INTU, Q9ULD6
T5 sequence (Q9ULD6 180-273, limits assumed, looked up): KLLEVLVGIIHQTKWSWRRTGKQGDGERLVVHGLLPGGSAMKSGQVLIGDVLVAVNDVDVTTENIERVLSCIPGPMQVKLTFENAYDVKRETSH

SNTB2, Q13425 = biological target: T6, SNTB2, Q13425
T6 sequence (Q13425 110-208, limits assumed, looked up): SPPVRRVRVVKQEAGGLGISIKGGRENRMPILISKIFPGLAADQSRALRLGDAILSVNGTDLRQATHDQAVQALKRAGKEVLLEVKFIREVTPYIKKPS

MAGI3_6, Q5TCQ9 = biological target: MAGI3_6, Q5TCQ9
PDZD2_3, O15018 = biological target: T7, PDZD2_3, O15018
T7 sequence (O15018 581-682, limits assumed, looked up): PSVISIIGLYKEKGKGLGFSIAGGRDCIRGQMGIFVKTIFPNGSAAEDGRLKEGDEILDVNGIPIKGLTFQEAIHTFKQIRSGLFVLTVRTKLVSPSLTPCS

USH1C_2, Q9Y6N9 = biological target: T8, USH1C_2, Q9Y6N9
T8 sequence (Q9Y6N9 206-303, limits assumed, looked up): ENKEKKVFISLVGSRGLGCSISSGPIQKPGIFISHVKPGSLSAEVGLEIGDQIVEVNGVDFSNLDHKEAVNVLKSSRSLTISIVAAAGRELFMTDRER

CNKSR1, Q969H4 = biological target: T9, CNKSR1, Q969H4
T9 sequence (Q969H4 191-295, limits assumed, looked up): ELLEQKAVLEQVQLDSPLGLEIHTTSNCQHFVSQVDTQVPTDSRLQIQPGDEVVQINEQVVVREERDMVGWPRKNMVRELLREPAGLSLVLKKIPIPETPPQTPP

LNX2_1, Q8N448 = biological target: T10, LNX2_1, Q8N448
T10 sequence (Q8N448 228-328, limits assumed, looked up): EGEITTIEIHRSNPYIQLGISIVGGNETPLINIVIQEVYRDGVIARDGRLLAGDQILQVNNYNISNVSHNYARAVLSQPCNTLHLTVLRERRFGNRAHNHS

DLG2_3, Q15700 = biological target: DLG2_3, Q15700
USH1C_1, Q9Y6N9 = biological target: T11, USH1C_1, Q9Y6N9
T11 sequence (Q9Y6N9 82-179, limits assumed, looked up): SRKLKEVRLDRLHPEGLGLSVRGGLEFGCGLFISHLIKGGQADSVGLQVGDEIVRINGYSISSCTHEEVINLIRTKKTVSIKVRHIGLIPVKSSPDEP

PDZD2_5, O15018 = biological target: T12, PDZD2_5, O15018
T12 sequence (O15018 2617-2716, limits assumed, looked up): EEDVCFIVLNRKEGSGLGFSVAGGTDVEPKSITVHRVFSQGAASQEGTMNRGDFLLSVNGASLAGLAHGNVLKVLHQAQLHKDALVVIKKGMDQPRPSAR

MAGI3_4, Q5TCQ9 = biological target: MAGI3_4, Q5TCQ9
PARD3B_3, Q8TEW8 = biological target: PARD3B_3, Q8TEW8
GIPC2, Q8TF65 = biological target: GIPC2, Q8TF65
APBA3_2, O96018 = biological target: T13, APBA3_2, O96018
T13 sequence (O96018 480-570, limits assumed, looked up): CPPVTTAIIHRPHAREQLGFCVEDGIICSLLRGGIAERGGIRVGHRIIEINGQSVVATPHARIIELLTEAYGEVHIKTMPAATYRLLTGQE

SHROOM2, Q13796 = biological target: T14, SHROOM2, Q13796
T14 sequence (Q13796 21-118, limits assumed, looked up): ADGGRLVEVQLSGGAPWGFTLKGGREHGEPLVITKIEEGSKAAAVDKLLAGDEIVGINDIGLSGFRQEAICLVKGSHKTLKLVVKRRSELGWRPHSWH

MAGI3_4, Q5TCQ9, sequence (Q5TCQ9 716-815): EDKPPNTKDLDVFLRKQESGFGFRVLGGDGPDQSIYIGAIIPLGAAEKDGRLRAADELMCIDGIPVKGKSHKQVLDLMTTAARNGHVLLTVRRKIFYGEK
PTPN13_2, Q12923, sequence (Q12923 1363-1462): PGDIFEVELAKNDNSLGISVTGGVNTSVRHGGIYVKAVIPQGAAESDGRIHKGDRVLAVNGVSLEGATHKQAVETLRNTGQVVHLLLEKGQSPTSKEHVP
GIPC2, Q8TF65, sequence (Q8TF65 112-203): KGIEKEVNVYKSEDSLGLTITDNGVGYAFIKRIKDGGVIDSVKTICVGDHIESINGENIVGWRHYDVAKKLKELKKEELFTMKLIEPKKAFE
Inadl_7, Q8NI35, sequence (Q8NI35 1219-1332): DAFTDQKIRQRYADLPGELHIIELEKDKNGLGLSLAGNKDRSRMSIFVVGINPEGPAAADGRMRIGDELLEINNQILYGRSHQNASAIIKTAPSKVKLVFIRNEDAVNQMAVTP
PARD3B_3, Q8TEW8, sequence (Q8TEW8 490-594): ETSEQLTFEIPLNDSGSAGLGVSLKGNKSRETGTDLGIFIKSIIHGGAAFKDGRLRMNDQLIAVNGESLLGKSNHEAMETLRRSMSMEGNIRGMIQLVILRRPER
DLG5_2, Q8TDM6, sequence (Q8TDM6 714-800): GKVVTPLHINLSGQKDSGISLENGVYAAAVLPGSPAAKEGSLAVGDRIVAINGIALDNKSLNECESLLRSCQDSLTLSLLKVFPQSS
MAGI3_6, Q5TCQ9, sequence (Q5TCQ9 1014-1103): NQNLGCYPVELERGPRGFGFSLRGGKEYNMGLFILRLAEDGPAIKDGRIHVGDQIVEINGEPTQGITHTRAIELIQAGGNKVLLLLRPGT

Question: With RYEDTTLVEDTVL [WNV-NS5, Q9Q6P4] as the binder, how does the pKd (PARD6G, Q9BYG4) read?
Answer: below the threshold

Question: What about the pKd (DLG5_2, Q8TDM6) of the same binder?
Answer: below the threshold

Question: And the pKd (NHERF1_1, O14745)?
Answer: 5.14

Question: What about the pKd (Inadl_7, Q8NI35) of the same binder?
Answer: below the threshold

Question: And the pKd (MPDZ_2, O75970)?
Answer: below the threshold

Question: And the pKd (PTPN13_1, Q12923)?
Answer: below the threshold

Question: And the pKd (PTPN13_2, Q12923)?
Answer: below the threshold

Question: And the pKd (INTU, Q9ULD6)?
Answer: below the threshold

Question: What about the pKd (SNTB2, Q13425) of the same binder?
Answer: below the threshold

Question: What about the pKd (MAGI3_6, Q5TCQ9) of the same binder?
Answer: below the threshold

Question: What about the pKd (PDZD2_3, O15018) of the same binder?
Answer: below the threshold

Question: What about the pKd (USH1C_2, Q9Y6N9) of the same binder?
Answer: below the threshold

Question: What about the pKd (CNKSR1, Q969H4) of the same binder?
Answer: below the threshold

Question: What about the pKd (LNX2_1, Q8N448) of the same binder?
Answer: below the threshold

Question: What about the pKd (DLG2_3, Q15700) of the same binder?
Answer: below the threshold

Question: What about the pKd (USH1C_1, Q9Y6N9) of the same binder?
Answer: below the threshold

Question: And the pKd (PDZD2_5, O15018)?
Answer: below the threshold

Question: What about the pKd (MAGI3_4, Q5TCQ9) of the same binder?
Answer: below the threshold

Question: And the pKd (PARD3B_3, Q8TEW8)?
Answer: 4.05

Question: What about the pKd (GIPC2, Q8TF65) of the same binder?
Answer: below the threshold

Question: What about the pKd (APBA3_2, O96018) of the same binder?
Answer: below the threshold

Question: And the pKd (SHROOM2, Q13796)?
Answer: 4.14

Question: Which pKd (PARD6G, Q9BYG4) does the source give for QQSMSSADSTQA [SARS-Cov2-N, P0DTC9] here?
Answer: below the threshold

Question: And the pKd (DLG5_2, Q8TDM6)?
Answer: below the threshold

Question: And the pKd (NHERF1_1, O14745)?
Answer: below the threshold

Question: And the pKd (Inadl_7, Q8NI35)?
Answer: below the threshold

Question: And the pKd (MPDZ_2, O75970)?
Answer: below the threshold

Question: And the pKd (PTPN13_1, Q12923)?
Answer: below the threshold

Question: And the pKd (PTPN13_2, Q12923)?
Answer: below the threshold

Question: What about the pKd (INTU, Q9ULD6) of the same binder?
Answer: below the threshold

Question: And the pKd (SNTB2, Q13425)?
Answer: below the threshold

Question: And the pKd (MAGI3_6, Q5TCQ9)?
Answer: below the threshold

Question: And the pKd (PDZD2_3, O15018)?
Answer: below the threshold

Question: And the pKd (USH1C_2, Q9Y6N9)?
Answer: below the threshold

Question: And the pKd (CNKSR1, Q969H4)?
Answer: below the threshold

Question: What about the pKd (LNX2_1, Q8N448) of the same binder?
Answer: below the threshold

Question: What about the pKd (DLG2_3, Q15700) of the same binder?
Answer: below the threshold

Question: What about the pKd (USH1C_1, Q9Y6N9) of the same binder?
Answer: below the threshold

Question: And the pKd (PDZD2_5, O15018)?
Answer: below the threshold

Question: What about the pKd (MAGI3_4, Q5TCQ9) of the same binder?
Answer: below the threshold

Question: And the pKd (PARD3B_3, Q8TEW8)?
Answer: below the threshold

Question: What about the pKd (GIPC2, Q8TF65) of the same binder?
Answer: below the threshold

Question: What about the pKd (APBA3_2, O96018) of the same binder?
Answer: below the threshold

Question: What about the pKd (SHROOM2, Q13796) of the same binder?
Answer: below the threshold

Question: For RRRRSQSRESQC [HBV-HBc, P03193], which pKd (PARD6G, Q9BYG4) is on record?
Answer: below the threshold

Question: And the pKd (DLG5_2, Q8TDM6)?
Answer: below the threshold

Question: And the pKd (NHERF1_1, O14745)?
Answer: below the threshold

Question: And the pKd (Inadl_7, Q8NI35)?
Answer: below the threshold

Question: What about the pKd (MPDZ_2, O75970) of the same binder?
Answer: below the threshold

Question: And the pKd (PTPN13_1, Q12923)?
Answer: below the threshold

Question: What about the pKd (PTPN13_2, Q12923) of the same binder?
Answer: 3.99

Question: What about the pKd (INTU, Q9ULD6) of the same binder?
Answer: below the threshold

Question: What about the pKd (SNTB2, Q13425) of the same binder?
Answer: 4.58

Question: What about the pKd (MAGI3_6, Q5TCQ9) of the same binder?
Answer: below the threshold

Question: And the pKd (PDZD2_3, O15018)?
Answer: below the threshold

Question: And the pKd (USH1C_2, Q9Y6N9)?
Answer: 4.09

Question: What about the pKd (CNKSR1, Q969H4) of the same binder?
Answer: 3.9

Question: And the pKd (LNX2_1, Q8N448)?
Answer: below the threshold

Question: What about the pKd (DLG2_3, Q15700) of the same binder?
Answer: 4.18

Question: And the pKd (USH1C_1, Q9Y6N9)?
Answer: below the threshold

Question: What about the pKd (MAGI3_4, Q5TCQ9) of the same binder?
Answer: below the threshold

Question: What about the pKd (PARD3B_3, Q8TEW8) of the same binder?
Answer: below the threshold

Question: What about the pKd (GIPC2, Q8TF65) of the same binder?
Answer: 4.39

Question: What about the pKd (APBA3_2, O96018) of the same binder?
Answer: below the threshold

Question: What about the pKd (SHROOM2, Q13796) of the same binder?
Answer: below the threshold
